Data published in patent publication US20160151487A1 (Hoffmann-La Roche, published 2016).

Experiments:
[1] = biological target: T1, human neonatal Fc-receptor (FcRn), soluble extracellular domain with His-Avi Tag, co-expressed with … (human, UniProt P55899 24-297; P61769 21-119, biotinylated (Avi Tag) for the affinity column); test: SPR (BIAcore T100), FcRn immobilized on CM5 chip by amine coupling (400 RU), 200 nM antibody injected, PBS 0.05% Tween-20 pH 6.0, room temperature
T1 construct: SPR: amine-coupled to a CM5 chip (400 RU), pH 6.0; also called huFcRn; FcRn/beta2-microglobulin
Protocol: The binding properties of wild-type antibody and the mutants to FcRn were analyzed by surface plasmon resonance (SPR) technology using a BIAcore T100 instrument (BIAcore AB, Uppsala, Sweden). […] In the current assay, the FcRn receptor was immobilized onto a BIAcore CM5-biosensor chip (GE Healthcare Bioscience, Uppsala, Sweden) via amine coupling to a level of 400 Response units (RU). The assay was carried out at room temperature with PBS, 0.05% Tween-20TM pH 6.0 (GE Healthcare Bioscience) as running and dilution buffer. 200 nM of antibody samples were injected at a flow rate of 50 μL/min at room temperature. Association time was 180 seconds, dissociation phase took 360 seconds. Regeneration of the chip surface was reached by a short injection of HBS-P, pH 8.0. Evaluation of SPR-data was performed by comparison of the biological response signal height at 180 seconds after injection and at 300 seconds after injection. The corresponding parameters are the RU max level (180 seconds after injection) and late stability (300 seconds after end of injection).

[2] = biological target: T1, human neonatal Fc-receptor (FcRn), …; test: FcRn affinity chromatography
Protocol: Antibody samples containing 50 to 100 μg of protein were adjusted to pH 5.5 and applied to the FcRn column using ÄKTA explorer 10 XT or Dionex Summit (Dionex, Idstein, Germany). The column with 5 cm bed height was then washed with 5-10 column volumes of equilibration buffer 20 mM MES, 150 mM NaCl, pH 5.5. […] For complete elution of modified antibodies, the pH was increased in the gradient up to pH 8.8. The experiments were carried out at room temperature. The elution profile was obtained by continuous measurement of the absorbance at 280 nm. The time taken for an analyte peak, X, to reach the detector after sample injection was called the retention time.

T1 sequence (P55899 24-297 limits assumed, chain 1 of 2): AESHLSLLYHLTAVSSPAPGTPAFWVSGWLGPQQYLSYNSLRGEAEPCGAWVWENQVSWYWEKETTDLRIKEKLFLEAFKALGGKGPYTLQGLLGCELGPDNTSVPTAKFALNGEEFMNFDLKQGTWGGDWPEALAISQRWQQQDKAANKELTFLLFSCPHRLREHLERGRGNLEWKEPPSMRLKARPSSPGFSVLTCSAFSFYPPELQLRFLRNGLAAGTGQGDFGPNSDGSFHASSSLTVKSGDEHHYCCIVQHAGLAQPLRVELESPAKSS
T1 sequence (P61769 21-119 limits assumed, chain 2 of 2): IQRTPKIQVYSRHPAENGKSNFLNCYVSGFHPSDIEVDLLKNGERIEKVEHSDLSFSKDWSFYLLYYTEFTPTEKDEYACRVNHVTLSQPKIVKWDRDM

Binder	binding result [1]	retention time on FcRn affinity column [2]
<IGF-1R> IgG1 with M252Y, S254T, T256E (antibody, also called YTE-mutant of anti-IGF-1R antibody) light: not shown heavy: QVELVESGGGVVQPGRSQRLSCAASGFTFSSYGMHWVRQAPGKGLEWVAIIWFDGSSTYYADSVRGRFTISRDNSKNTLYLQMNSLRAEDTAVYFCARELGRRYFDLWGRGTLVSVSSASTKGPSVFPLAPSSKSTSGGTAALGCLVKDYFPEPVTVSWNSGALTSGVHTFPAVLQSSGLYSLSSVVTVPSSSLGTQTYICNVNHKPSNTKVDKKVEPKSCDKTHTCPPCPAPELLGGPSVFLFPPKPKDTLYITREPEVTCVVVDVSHEDPEVKFNWYVDGVEVHNAKTKPREEQYNSTYRVVSVLTVLHQDWLNGKEYKCKVSNKALPAPIEKTISKAKGQPREPQVYTLPPSRDELTKNQVSLTCLVKGFYPSDIAVEWESNGQPENNYKTTPPVLDSDGSFFLYSKLTVDKSRWQQGNVFSCSVMHEALHNHYTQKSLSLSPG	binds	–
<IGF-1R> IgG1 knob wt, hole H310A, H433A, Y436A (antibody, also called IGF-1R 0035; anti-IGF-1R antibody (knobs-into-holes), one chain with H310A/H433A/Y436A) light: not shown heavy 1: not shown heavy 2: QVELVESGGGVVQPGRSQRLSCAASGFTFSSYGMHWVRQAPGKGLEWVAIIWFDGSSTYYADSVRGRFTISRDNSKNTLYLQMNSLRAEDTAVYFCARELGRRYFDLWGRGTLVSVSSASTKGPSVFPLAPSSKSTSGGTAALGCLVKDYFPEPVTVSWNSGALTSGVHTFPAVLQSSGLYSLSSVVTVPSSSLGTQTYICNVNHKPSNTKVDKKVEPKSCDKTHTCPPCPAPELLGGPSVFLFPPKPKDTLMISRTPEVTCVVVDVSHEDPEVKFNWYVDGVEVHNAKTKPREEQYNSTYRVVSVLTVLAQDWLNGKEYKCKVSNKALPAPIEKTISKAKGQPREPQVCTLPPSRDELTKNQVSLSCAVKGFYPSDIAVEWESNGQPENNYKTTPPVLDSDGSFFLVSKLTVDKSRWQQGNVFSCSVMHEALANHATQKSLSLSPGK	–	42.4 min
<IgF-1R> IgG1 knob wt, hole I253A, H310A, H435A (antibody, T0033 lists L234A/L235A/P329G for IGF-1R 0034; also called IGF-1R 0034; anti-IGF-1R antibody (knobs-into-holes), one chain with I253A/H310A/H435A) light: not shown heavy 1: not shown heavy 2: QVELVESGGGVVQPGRSQRLSCAASGFTFSSYGMHWVRQAPGKGLEWVAIIWFDGSSTYYADSVRGRFTISRDNSKNTLYLQMNSLRAEDTAVYFCARELGRRYFDLWGRGTLVSVSSASTKGPSVFPLAPSSKSTSGGTAALGCLVKDYFPEPVTVSWNSGALTSGVHTFPAVLQSSGLYSLSSVVTVPSSSLGTQTYICNVNHKPSNTKVDKKVEPKSCDKTHTCPPCPAPELLGGPSVFLFPPKPKDTLMASRTPEVTCVVVDVSHEDPEVKFNWYVDGVEVHNAKTKPREEQYNSTYRVVSVLTVLAQDWLNGKEYKCKVSNKALPAPIEKTISKAKGQPREPQVCTLPPSRDELTKNQVSLSCAVKGFYPSDIAVEWESNGQPENNYKTTPPVLDSDGSFFLVSKLTVDKSRWQQGNVFSCSVMHEALHNAYTQKSLSLSPGK	–	42 min
<IGF-1R> IgG1 knob wt, hole M252Y, S254T, T256E (antibody, T0033 lists L234A/L235A/P329G for IGF-1R 0036; also called IGF-1R 0036; anti-IGF-1R antibody (knobs-into-holes), one chain with M252Y/S254T/T256E) light: not shown heavy 1: not shown heavy 2: QVELVESGGGVVQPGRSQRLSCAASGFTFSSYGMHWVRQAPGKGLEWVAIIWFDGSSTYYADSVRGRFTISRDNSKNTLYLQMNSLRAEDTAVYFCARELGRRYFDLWGRGTLVSVSSASTKGPSVFPLAPSSKSTSGGTAALGCLVKDYFPEPVTVSWNSGALTSGVHTFPAVLQSSGLYSLSSVVTVPSSSLGTQTYICNVNHKPSNTKVDKKVEPKSCDKTHTCPPCPAPELLGGPSVFLFPPKPKDTLYITREPEVTCVVVDVSHEDPEVKFNWYVDGVEVHNAKTKPREEQYNSTYRVVSVLTVLHQDWLNGKEYKCKVSNKALPAPIEKTISKAKGQPREPQVCTLPPSRDELTKNQVSLSCAVKGFYPSDIAVEWESNGQPENNYKTTPPVLDSDGSFFLVSKLTVDKSRWQQGNVFSCSVMHEALHNHYTQKSLSLSPGK	–	57.6 min
<IGF-1R> IgG1 knob wt, hole L251D, L314D, L432D (antibody, T0033 lists L234A/L235A/P329G for IGF-1R 0037; also called IGF-1R 0037; anti-IGF-1R antibody (knobs-into-holes), one chain with L251D/L314D/L432D) light: not shown heavy 1: not shown heavy 2: QVELVESGGGVVQPGRSQRLSCAASGFTFSSYGMHWVRQAPGKGLEWVAIIWFDGSSTYYADSVRGRFTISRDNSKNTLYLQMNSLRAEDTAVYFCARELGRRYFDLWGRGTLVSVSSASTKGPSVFPLAPSSKSTSGGTAALGCLVKDYFPEPVTVSWNSGALTSGVHTFPAVLQSSGLYSLSSVVTVPSSSLGTQTYICNVNHKPSNTKVDKKVEPKSCDKTHTCPPCPAPELLGGPSVFLFPPKPKDTDMISRTPEVTCVVVDVSHEDPEVKFNWYVDGVEVHNAKTKPREEQYNSTYRVVSVLTVLHQDWDNGKEYKCKVSNKALPAPIEKTISKAKGQPREPQVCTLPPSRDELTKNQVSLSCAVKGFYPSDIAVEWESNGQPENNYKTTPPVLDSDGSFFLVSKLTVDKSRWQQGNVFSCSVMHEADHNHYTQKSLSLSPGK	–	40.9 min
